Source: publication PMC7397735 (NAR Cancer, 2020)

Biological target: POLQ-FLAG (DNA polymerase θ) (human, UniProt O75417 1-2590)
Assay: co-IP

Chain of POLQ-FLAG (DNA polymerase θ) (O75417 whole entry): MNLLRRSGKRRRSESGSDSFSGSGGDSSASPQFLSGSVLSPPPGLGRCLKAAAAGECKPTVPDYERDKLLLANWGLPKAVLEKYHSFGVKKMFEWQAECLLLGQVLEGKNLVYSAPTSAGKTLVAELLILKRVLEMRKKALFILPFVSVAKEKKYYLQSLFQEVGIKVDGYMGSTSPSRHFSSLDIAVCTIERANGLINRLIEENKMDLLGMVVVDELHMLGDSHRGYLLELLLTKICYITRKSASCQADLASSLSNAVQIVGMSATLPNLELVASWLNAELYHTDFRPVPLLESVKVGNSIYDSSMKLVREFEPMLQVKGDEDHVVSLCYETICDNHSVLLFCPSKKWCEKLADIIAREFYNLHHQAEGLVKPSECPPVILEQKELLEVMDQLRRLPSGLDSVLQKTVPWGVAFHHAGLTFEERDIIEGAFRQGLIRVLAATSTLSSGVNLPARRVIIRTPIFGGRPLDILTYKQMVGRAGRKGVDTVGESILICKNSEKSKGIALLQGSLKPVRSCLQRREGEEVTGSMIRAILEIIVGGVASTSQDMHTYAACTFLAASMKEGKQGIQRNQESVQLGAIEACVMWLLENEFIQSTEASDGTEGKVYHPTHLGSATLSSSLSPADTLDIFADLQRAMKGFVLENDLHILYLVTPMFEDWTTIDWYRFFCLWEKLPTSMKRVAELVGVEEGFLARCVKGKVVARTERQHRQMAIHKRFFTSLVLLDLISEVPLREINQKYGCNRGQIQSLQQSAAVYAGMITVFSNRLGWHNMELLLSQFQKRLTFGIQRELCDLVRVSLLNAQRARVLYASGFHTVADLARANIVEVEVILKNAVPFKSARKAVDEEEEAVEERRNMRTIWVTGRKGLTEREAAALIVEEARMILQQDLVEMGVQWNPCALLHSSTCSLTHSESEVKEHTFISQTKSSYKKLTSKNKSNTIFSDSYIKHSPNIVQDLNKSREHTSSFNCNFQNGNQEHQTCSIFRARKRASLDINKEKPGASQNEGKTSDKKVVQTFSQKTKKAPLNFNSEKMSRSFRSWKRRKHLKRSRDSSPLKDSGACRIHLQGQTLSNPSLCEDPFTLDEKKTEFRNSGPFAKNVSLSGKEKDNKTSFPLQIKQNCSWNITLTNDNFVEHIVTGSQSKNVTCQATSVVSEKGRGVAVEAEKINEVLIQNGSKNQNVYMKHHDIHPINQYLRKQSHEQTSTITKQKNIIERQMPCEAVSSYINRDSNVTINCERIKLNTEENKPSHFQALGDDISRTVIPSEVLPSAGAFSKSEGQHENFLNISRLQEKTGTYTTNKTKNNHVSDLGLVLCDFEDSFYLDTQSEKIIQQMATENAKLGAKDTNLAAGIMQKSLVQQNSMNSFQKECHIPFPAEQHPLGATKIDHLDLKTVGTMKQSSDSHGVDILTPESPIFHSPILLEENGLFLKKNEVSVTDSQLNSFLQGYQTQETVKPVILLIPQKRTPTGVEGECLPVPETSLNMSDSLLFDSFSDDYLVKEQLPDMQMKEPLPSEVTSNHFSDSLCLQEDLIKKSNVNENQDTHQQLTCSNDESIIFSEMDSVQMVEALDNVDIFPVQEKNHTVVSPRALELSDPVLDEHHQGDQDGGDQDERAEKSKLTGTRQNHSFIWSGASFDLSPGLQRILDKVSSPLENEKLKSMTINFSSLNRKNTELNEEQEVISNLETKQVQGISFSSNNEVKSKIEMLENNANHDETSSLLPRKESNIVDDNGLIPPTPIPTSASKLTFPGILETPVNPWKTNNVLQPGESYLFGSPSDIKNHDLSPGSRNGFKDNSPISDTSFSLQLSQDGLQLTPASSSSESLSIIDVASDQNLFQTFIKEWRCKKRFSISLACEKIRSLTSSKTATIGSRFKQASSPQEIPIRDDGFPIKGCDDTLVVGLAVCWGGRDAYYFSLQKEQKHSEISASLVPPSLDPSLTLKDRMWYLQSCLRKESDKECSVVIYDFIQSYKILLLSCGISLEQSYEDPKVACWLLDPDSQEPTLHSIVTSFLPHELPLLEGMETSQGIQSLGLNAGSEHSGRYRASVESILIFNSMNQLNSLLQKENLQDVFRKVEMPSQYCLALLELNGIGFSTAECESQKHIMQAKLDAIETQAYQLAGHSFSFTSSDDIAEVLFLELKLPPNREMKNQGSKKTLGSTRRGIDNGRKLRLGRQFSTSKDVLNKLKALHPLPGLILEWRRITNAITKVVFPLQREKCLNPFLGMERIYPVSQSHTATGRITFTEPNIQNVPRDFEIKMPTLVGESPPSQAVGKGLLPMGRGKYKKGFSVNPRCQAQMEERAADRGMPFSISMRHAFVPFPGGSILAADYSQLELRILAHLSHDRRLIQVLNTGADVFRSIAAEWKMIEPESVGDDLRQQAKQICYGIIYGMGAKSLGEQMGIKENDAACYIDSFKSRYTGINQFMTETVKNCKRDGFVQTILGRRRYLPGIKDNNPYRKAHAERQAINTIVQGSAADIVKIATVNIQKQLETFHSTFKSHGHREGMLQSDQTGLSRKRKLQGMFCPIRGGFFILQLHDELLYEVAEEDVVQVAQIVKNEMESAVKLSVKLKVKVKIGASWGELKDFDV

B1: MRE11 (natural protein, human (endogenous in U2OS), UniProt P49959 1-708, looked up)
chain: MSTADALDDENTFKILVATDIHLGFMEKDAVRGNDTFVTLDEILRLAQENEVDFILLGGDLFHENKPSRKTLHTCLELLRKYCMGDRPVQFEILSDQSVNFGFSKFPWVNYQDGNLNISIPVFSIHGNHDDPTGADALCALDILSCAGFVNHFGRSMSVEKIDISPVLLQKGSTKIALYGLGSIPDERLYRMFVNKKVTMLRPKEDENSWFNLFVIHQNRSKHGSTNFIPEQFLDDFIDLVIWGHEHECKIAPTKNEQQLFYISQPGSSVVTSLSPGEAVKKHVGLLRIKGRKMNMHKIPLHTVRQFFMEDIVLANHPDIFNPDNPKVTQAIQSFCLEKIEEMLENAERERLGNSHQPEKPLVRLRVDYSGGFEPFSVLRFSQKFVDRVANPKDIIHFFRHREQKEKTGEEINFGKLITKPSEGTTLRVEDLVKQYFQTAEKNVQLSLLTERGMGEAVQEFVDKEEKDAIEELVKYQLEKTQRFLKERHIDALEDKIDEEVRRFRETRQKNTNEEDDEVREAMTRARALRSQSEESASAFSADDLMSIDLAEQMANDSDDSISAATNKGRGRGRGRRGGRGQNSASRGGSQRGRADTGLETSTRSRNSKTAVSASRNMSIIDAFKSTRQQPSRNVTTKNYSEVIEVDESDVEEDIFPTTSKTDQRWSSTSSSKIMSQSQVSKGVDFESSEDDDDDPFMNTSSLRRNRR
fold level in POLQ-FLAG IP, BRCA2-deficient over BRCA2-proficient cells: ~4 fold
